Legend:
[1] = target: human DDR1b protein (Discoidin Domain Receptor 1, isoform b) (human) (UniProt Q08345); assay: cell-based or functional assay
[2] = target: DDR1bDN protein (dominant negative type DDR1b not having kinase activity) (human) (UniProt Q08345); assay: cell-based or functional assay

Row | Substance | cell protection inhibitory activity at 33 µg/mL, relative to the change induced by type IV collagen as 100%, HCT116 cells (Caspase-Glo 3/7 Assay) [1] [%] | cell protection inhibitory activity at 1 mg/mL, relative to the absorbance change induced by type IV collagen as 100%, DDR1FL-#117 cells [1] [%] | suppression of serum-removal-induced apoptosis by addition of type IV collagen in DDR1FL-#117 cells (Cell Death Detection ELISA) [1] [%] | suppression of serum-removal-induced apoptosis by addition of type IV collagen in DDR1bDN-#206 cells (Cell Death Detection ELISA) [2] [%]
1 | non-immunized rabbit IgG (Jackson Immunoresearch Company) (antibody) | 0 | 1.7 | – | –
2 | type IV collagen (Sigma Company) (ligand) | – | – | 53 | 34

From US20090142345A1
